Assay results: patent US20220289848A1 (published 2022)

What was measured:
[1] = target: CD47 expressed on CHO-K1 cells (UniProt Q08722 19-323); assay: FACS
[2] = target: PD-L1 expressed on CHO-K1 cells (UniProt Q9NZQ7 19-290); assay: FACS binding, CHO-K1 cells expressing PD-L1
Chain of PD-L1 expressed on CHO-K1 cells (Q9NZQ7 19-290): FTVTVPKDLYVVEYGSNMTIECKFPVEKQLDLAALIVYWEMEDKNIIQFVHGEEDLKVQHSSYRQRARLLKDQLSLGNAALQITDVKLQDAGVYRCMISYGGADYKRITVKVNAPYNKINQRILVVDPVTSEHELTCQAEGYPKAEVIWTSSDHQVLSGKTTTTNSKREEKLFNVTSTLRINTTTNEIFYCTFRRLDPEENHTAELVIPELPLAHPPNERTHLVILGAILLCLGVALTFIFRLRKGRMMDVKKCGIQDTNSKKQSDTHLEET

| Binder | EC50 [1] | EC50 [2] |
| --- | --- | --- |
| PDL1a-E-HN (bispecific antibody) heavy: not shown light: EIVLTQSPATLSLSPGERATLSCRASENVGTYISWYQQKPGQAPRLLIYGASNRYTGIPARFSGSGSGTDFTLTISSLEPEDFAVYYCGESYGHLYTFGGGTKVEIKRTVAAPSVFIFPPSDEQLKSGTASVVCLLNNFYPREAKVQWKVDNALQSGNSQESVTEQDSKDSTYSLSSTLTLSKADYEKHKVYACEVTHQGLSSPVTKSFNRGEC | 0.854 nM | 0.759 nM |
| PDL1a-E-HC (bispecific antibody) heavy: not shown light: EIVLTQSPATLSLSPGERATLSCRASENVGTYISWYQQKPGQAPRLLIYGASNRYTGIPARFSGSGSGTDFTLTISSLEPEDFAVYYCGESYGHLYTFGGGTKVEIKRTVAAPSVFIFPPSDEQLKSGTASVVCLLNNFYPREAKVQWKVDNALQSGNSQESVTEQDSKDSTYSLSSTLTLSKADYEKHKVYACEVTHQGLSSPVTKSFNRGEC | 0.255 nM | – |
| PDL1b-E-HN (bispecific antibody) heavy: not shown light: EIVLTQSPATLSLSPGERATLSCRASENVGTYISWYQQKPGQAPRLLIYGASNRYTGIPARFSGSGSGTDFTLTISSLEPEDFAVYYCGESYGHLYTFGGGTKVEIKRTVAAPSVFIFPPSDEQLKSGTASVVCLLNNFYPREAKVQWKVDNALQSGNSQESVTEQDSKDSTYSLSSTLTLSKADYEKHKVYACEVTHQGLSSPVTKSFNRGEC | 0.521 nM | – |
| PDL1b-E-HC (bispecific antibody) heavy: not shown light: EIVLTQSPATLSLSPGERATLSCRASENVGTYISWYQQKPGQAPRLLIYGASNRYTGIPARFSGSGSGTDFTLTISSLEPEDFAVYYCGESYGHLYTFGGGTKVEIKRTVAAPSVFIFPPSDEQLKSGTASVVCLLNNFYPREAKVQWKVDNALQSGNSQESVTEQDSKDSTYSLSSTLTLSKADYEKHKVYACEVTHQGLSSPVTKSFNRGEC | 0.328 nM | – |
| PDL1a-G15-HN (bispecific antibody) heavy: not shown light: EIVLTQSPATLSLSPGERATLSCRASENVGTYISWYQQKPGQAPRLLIYGASNRYTGIPARFSGSGSGTDFTLTISSLEPEDFAVYYCGESYGHLYTFGGGTKVEIKRTVAAPSVFIFPPSDEQLKSGTASVVCLLNNFYPREAKVQWKVDNALQSGNSQESVTEQDSKDSTYSLSSTLTLSKADYEKHKVYACEVTHQGLSSPVTKSFNRGEC | 0.664 nM | – |
| PDL1a-G15-HC (bispecific antibody) heavy: not shown light: EIVLTQSPATLSLSPGERATLSCRASENVGTYISWYQQKPGQAPRLLIYGASNRYTGIPARFSGSGSGTDFTLTISSLEPEDFAVYYCGESYGHLYTFGGGTKVEIKRTVAAPSVFIFPPSDEQLKSGTASVVCLLNNFYPREAKVQWKVDNALQSGNSQESVTEQDSKDSTYSLSSTLTLSKADYEKHKVYACEVTHQGLSSPVTKSFNRGEC | 0.247 nM | – |
| PDL1a-G15-LN (bispecific antibody) heavy: not shown light: EVQLVESGGGLVQPGGSLRLSCAASGRTFVTYGMGWFRQAPGKGREFVSAISWSGSMTSYGDSVKGRFTISRDNAKNTLYLQMNSLRPEDTAVYYCAAALGAVVYTTREPYTYWGQGTLVTVSSGGGGSGGGGSGGGGSEIVLTQSPATLSLSPGERATLSCRASENVGTYISWYQQKPGQAPRLLIYGASNRYTGIPARFSGSGSGTDFTLTISSLEPEDFAVYYCGESYGHLYTFGGGTKVEIKRTVAAPSVFIFPPSDEQLKSGTASVVCLLNNFYPREAKVQWKVDNALQSGNSQESVTEQDSKDSTYSLSSTLTLSKADYEKHKVYACEVTHQGLSSPVTKSFNRGEC | – | 1.11 nM |
| PDL1a-E-LN (bispecific antibody) heavy: not shown light: EVQLVESGGGLVQPGGSLRLSCAASGRTFVTYGMGWFRQAPGKGREFVSAISWSGSMTSYGDSVKGRFTISRDNAKNTLYLQMNSLRPEDTAVYYCAAALGAVVYTTREPYTYWGQGTLVTVSSEPKSSDKTHTSPPSPEIVLTQSPATLSLSPGERATLSCRASENVGTYISWYQQKPGQAPRLLIYGASNRYTGIPARFSGSGSGTDFTLTISSLEPEDFAVYYCGESYGHLYTFGGGTKVEIKRTVAAPSVFIFPPSDEQLKSGTASVVCLLNNFYPREAKVQWKVDNALQSGNSQESVTEQDSKDSTYSLSSTLTLSKADYEKHKVYACEVTHQGLSSPVTKSFNRGEC | – | 0.351 nM |

More lines, now with the values ahead:

| EC50 [1] | EC50 [2] | Binder |
| --- | --- | --- |
| 0.325 nM | – | anti-CD47 monoclonal antibody (mAb) (antibody, V domains shown) VH: EVQLVQSGAEVKKPGSSVKVSCKASGYSFTHHWIHWVRQAPGQGLEWMGMIDASDSETRLSQKFKDRVTITADKSTSTAYMELSSLRSEDTAVYYCARLGRYYFDYWGQGTTVTVSS VL: EIVLTQSPATLSLSPGERATLSCRASENVGTYISWYQQKPGQAPRLLIYGASNRYTGIPARFSGSGSGTDFTLTISSLEPEDFAVYYCGESYGHLYTFGGGTKVEIKR |
| 0.287 nM | – | PDL1c-E-HC (bispecific antibody) heavy: not shown light: EIVLTQSPATLSLSPGERATLSCRASENVGTYISWYQQKPGQAPRLLIYGASNRYTGIPARFSGSGSGTDFTLTISSLEPEDFAVYYCGESYGHLYTFGGGTKVEIKRTVAAPSVFIFPPSDEQLKSGTASVVCLLNNFYPREAKVQWKVDNALQSGNSQESVTEQDSKDSTYSLSSTLTLSKADYEKHKVYACEVTHQGLSSPVTKSFNRGEC |
| 0.7 nM | 1.48 nM | PDL1c-E-HN (bispecific antibody) heavy: not shown light: EIVLTQSPATLSLSPGERATLSCRASENVGTYISWYQQKPGQAPRLLIYGASNRYTGIPARFSGSGSGTDFTLTISSLEPEDFAVYYCGESYGHLYTFGGGTKVEIKRTVAAPSVFIFPPSDEQLKSGTASVVCLLNNFYPREAKVQWKVDNALQSGNSQESVTEQDSKDSTYSLSSTLTLSKADYEKHKVYACEVTHQGLSSPVTKSFNRGEC |
| – | 1.18 nM | PDL1b-E-LN (bispecific antibody) heavy: not shown light: EVQLVESGGGLVQPGGSLRLSCAASGRTFVTYGMGWFRQAPGKGREFVSAISWSGSSTSYGDSVKGRFTISRDNAKNTLYLQMNSLRPEDTAVYYCAAALGAVVYTTREPYTYWGQGTLVTVSSEPKSSDKTHTSPPSPEIVLTQSPATLSLSPGERATLSCRASENVGTYISWYQQKPGQAPRLLIYGASNRYTGIPARFSGSGSGTDFTLTISSLEPEDFAVYYCGESYGHLYTFGGGTKVEIKRTVAAPSVFIFPPSDEQLKSGTASVVCLLNNFYPREAKVQWKVDNALQSGNSQESVTEQDSKDSTYSLSSTLTLSKADYEKHKVYACEVTHQGLSSPVTKSFNRGEC |
| – | 0.718 nM | PDL1c-E-LN (bispecific antibody) heavy: not shown light: EVQLVESGGGLVQPGGSLRLSCAASGRTFITYAIGWFRQAPGKGREFVSAISWSGSMTSYADSVKGRFTISRDNAKNTLYLQMNSLRPEDTAVYYCAAHRGAIAPIAQSVYTNWGQGTLVTVSSEPKSSDKTHTSPPSPEIVLTQSPATLSLSPGERATLSCRASENVGTYISWYQQKPGQAPRLLIYGASNRYTGIPARFSGSGSGTDFTLTISSLEPEDFAVYYCGESYGHLYTFGGGTKVEIKRTVAAPSVFIFPPSDEQLKSGTASVVCLLNNFYPREAKVQWKVDNALQSGNSQESVTEQDSKDSTYSLSSTLTLSKADYEKHKVYACEVTHQGLSSPVTKSFNRGEC |
